# Assay results from the supplement of paper PMC12636428.
# Test system: Saccharomyces cerevisiae
# Assay: transcriptional activation domain activity (GFP:mCherry ratio, weighted mean of sorted bins, harmonized to initial dataset scale) (arbitrary fluorescence ratio units); higher = stronger transcriptional activation
# Conditions: beta-estradiol 1 µM; induction time 4 h
# How it was run: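 The listed activation activity is a read-weighted mean of bin median fluorescence, averaged across barcodes and linearly mapped onto the initial dataset scale. Barcoded tiles, fused to an estradiol-inducible synthetic transcription factor, were integrated at URA3 in yeast diploids bearing a GFP reporter. Cells were held 4 hours at 30 °C in SC with 1 uM beta-estradiol, sorted into 8 GFP:mCherry bins, and sequenced, and tiles with fewer than 50 reads were excluded.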
row,Sequence,transcriptional activation domain activity
1,PEKCGDLVVIRGGRLHFRSSAVRLHLLQQMGKTLLLLKDAHLQLTLRTLLYAR,46500
2,PEKLFGLMHAAISNFPEWETKVGSWFLLGIWHPRFFKAAKEILPYCRRSCISF,64500
3,PELGRIVRWKWFEWTAKALFIQLYSWSLQAFLFSVGWFNRFLVRKDIVLQIIM,51900
4,PELIGFCCFSMRFFVFIDLLGTLILPATVVYLIYLIIVVATRASAFPQIAIIM,59400
5,PELVPLDLKNPELDSSFDLNMNLDLNLNLDSNFNIALNRSDSSGSTMNLDYKL,101000
6,PENWTMDSWPLYWPQALIDTIPSLQLSIPPMDLTTLDNPLAPFAFFMFLFSWQ,53400
7,PEPVAAPAPANDGFSEVQHNRGGRGRGGQYQGEGRGGYRGRGRGGPRGGGEFR,24500
8,PEPVSEEPKAESSRTATAPPSLARRAASYFVSSFRGRTLHGTKIDVPDGYTGL,49000
9,PEQSSSNAVSDAADQLANVKLEDGTNAAASSAPRTRKPRARKPKRKAAAANAS,12100
10,PESINYVLEQGSLLSRFTYRFVIFICKLARINQPTYRLLIRFGLLDMILRICV,87400
11,PEVMHALLFWTSNLLLFGINAIAFSKVSWFITLIRLVVNCRQKVALWMLMVFS,60100
12,PFAFLLLLLFPLVLFLPALLLLFLPLLPLLPLLLWILWIQTLQSLFSFPDISD,46900
13,PFCMVNAKTVTLRMIESIHKLRRVLVRSEDEIIRLISPVSAKVLCTCLPLFEM,60400
14,PFFRVHHLYLPSLLQVVNLAILTSHALFNFIPHFYIVCIIVFWEGLLGGLVYV,60500
15,PFFSLDNIMATFDTSTGKLRIWGIRAKPRFVWFCSKEHLLPCMNVKMIRYNSI,64600
16,PFGFLTDEVKNSYLRCSYKWSFHHIPNLLIAIRERRLDPLLIWAMLAITVRFS,79500
17,PFGICGSFLGLFFCVMGLIAHMPSIWLVRGGNHSYTSLPGNSWLCVIFCLFSC,49200
18,PFIIVTGLVVFVYYSYLDRIFLVLLRKLHRKALAIAYFVPLNIFIFLFIISYC,63700
19,PFLFKITVLYVLEVIDGILDVSRFFPAVQLELCCLMFLWCCCGMVLLWFCLTR,58800
20,PFLFPSLFYSQYHTIPFSFSCHFIPLSFSFPSFYSGSPIPFPFLFSSSYLFLF,58300
21,PFLLLLPVSLFSFLFFHFFYLFVSFSFFLFCYFFYFLHFFLTFLIFLLFLTFL,34900

row,Sequence,transcriptional activation domain activity
1,PFLLYTSGFLFMGATEEQMNLLTSAGVSHVSYILLLYSISFLLFLFVCMLLHL,33400
2,PFLPSSLPPFLPSSLPPFLPSSLPPFLPSSLPPSLLFSFLFSFPLPSPPSLPL,64000
3,PFLTTYPESYVHRAFEFGRVFDYRWTVNWRMIPEKTFVSTWFAHQLLLCHVIA,56500
4,PFPLLPFPLLPFPLLPSPLPIPLLPIPLLSFPLLPFPFLPFPLLSYPLFHFTV,44800
5,PFPLPLLLPCPLPLLFPLSFPLLLLLPFLLPLLFTLSFTLLFMLSFPLLFMLS,47900
6,PFPLSFPLPFLLSFPLPFLLSFPLISSQPFPLSLLSFPPFPPLSPLPPPSPFF,44600
7,PFQFLLLKSLSIQKHSDLIIRGCSHFYVGVLSCILNFFLGSWSAWLKRFWYML,80300
8,PFRIGRIVAWISYGIHQVGQWGILAKVQRAKEEWSNTYRWWNWSMVYLNGFML,59700
9,PFSFGLFLLYLCSCLTNCMTHIVFCLCSNIQLFFRFWFFYWIDHRPLGFFLAR,44700
10,PFSFSNTDLTALFTHPEGPNCTNTNNGNVDVCNRASTDATDANIENLSFLNMA,116000
11,PFSHFVRMLLIYLPSLRLIVYYAFSFTLIMPFVLGYSVFMPSNWDTATFFFSY,61900
12,PFSNFFSNLFLYLFFDLFSNFFFIFSLPFILFHIISSIFNLNFNLLLLLIHLF,65800
13,PFTELFRRFLFSNIRFTSKVTIISYIGTYYAIGAAWIMTTANYFAIGWFNGYL,46500
14,PFTIVFILPFDFSSTQYRICEHNCDAPLGYISSQFTRRLWVVLYWTMYLLTWL,67000
15,PFVTRCQRNIRIACLICFFFTYSLFHLAFYVGLERRNVPVPLGNHFWSVYGFA,38200
16,PFVVTLLNLWKIWSLKLLKEKARLVVDGGAFVMGCVDETVTLRGHDDHKWTKD,56800
17,PGAAGGEKEKKKRQRTKNKKVDAAAPAEDAPAAAAEKLAKLEVAPADDDAAAK,25900
18,PGEVSEAEANGDAPKADDAAAPESGEAAKPKKKKKKAAKKPKKEGEEGAAAAP,37700
19,PGEVSEAEANGDAPKAEAAVAPDSDEAAKPKKKKKARKPKAAKKGEDGEPAAA,17100
20,PGEVSEAEANGDAPKVEAAAKPKKKKKKAARKPKTKEEDGAPAAAPTEEAAPA,10100
